Experimental data taken from patent US20160051694A1 (AGENSYS, published 2016).
Values belong to the binder of their own block, whether it stands above or below them.

Tests used:
[1] = target: T1, CD37 (Leukocyte Antigen CD37, Tetraspanin-26) on cells (human, UniProt P11049 1-281); experiment: FACS, REC-1 cells (MCL); ratio to isotype control
T1 construct: In the assays it is the endogenous CD37 of human cancer cell lines, of AML patient PBMC and of patient tumor sections, or CD37 on recombinant 293T cells; also called CD37 antigen; CD37 expressing cells
T1 sequence: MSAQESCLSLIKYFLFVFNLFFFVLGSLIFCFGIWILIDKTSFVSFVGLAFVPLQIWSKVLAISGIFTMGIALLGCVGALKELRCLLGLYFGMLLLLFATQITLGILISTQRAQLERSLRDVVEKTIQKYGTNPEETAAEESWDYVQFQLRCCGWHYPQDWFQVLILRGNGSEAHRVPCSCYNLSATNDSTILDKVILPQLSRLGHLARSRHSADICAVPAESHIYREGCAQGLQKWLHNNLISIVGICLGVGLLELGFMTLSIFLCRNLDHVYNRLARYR
Description: (§1) To express HvCD37-6b15.1.1 MAb recombinantly in transfected cells, HvCD37-6b15.1.1 MAb variable heavy and light chain sequences were cloned upstream of the human heavy chain IgG2 and human light chain Igκ constant regions respectively. The complete HvCD37-6b15.1.1 MAb human heavy chain and light chain cassettes were cloned downstream of the CMV promoter/enhancer in a cloning vector. A polyadenylation site was included downstream of the MAb coding sequence. The recombinant HvCD37-6b15.1.1 MAb expressing construct was transfected into CHO cells. The HvCD37-6b15.1.1 MAb secreted from recombinant cells was evaluated for binding to human cancer cell lines expressing CD37 by FACS (See, Table VI). Binding was detected by flow cytometry.
(§2) HvCD37-6b15.1.1 was tested for binding to different NHL, CLL and AML cell lines (See, Table VI) grown in-vitro. HvCD37-6b15.1.1 and an Isotype matched control antibody were biotinylated using NHS LC biotin. In vitro cancer lines growing exponentially were used for all experiments. […] After washing un-bound secondary antibody, cells were analyzed by FACS, a total of 10,000 events were collected per sample. Data files were analyzed using FlowJo and Geometric Mean Fluorescence was determined and reported. Fluorescense ratio was calculated as follows: Geo mean AGS67C/Geo Mean Isotype control=MFR, a measure of fold expression above Isotype control.

[2] = target: T1, CD37 (Leukocyte Antigen CD37, …); experiment: FACS, Raji cells (Burkitt's); ratio to isotype control
Protocol: (§3) HvCD37-6b15.1.1 was tested for binding to different NHL, CLL and AML cell lines (See, Table VI) grown in-vitro. HvCD37-6b15.1.1 and an Isotype matched control antibody were biotinylated using NHS LC biotin. In vitro cancer lines growing exponentially were used for all experiments. Briefly, cells were harvested by and washed by centrifugation. Antibodies were diluted to 5 μg/mL final concentration and co-incubated with cells at 4° C. for 1 hour. At the end of the incubation, cells were washed and incubated with secondary detection Streptavidin-PE antibody at a final 1:400 (1.25 μg/mL) dilution for 1 hr at 4° C. After washing un-bound secondary antibody, cells were analyzed by FACS, a total of 10,000 events were collected per sample. Data files were analyzed using FlowJo and Geometric Mean Fluorescence was determined and reported. Fluorescense ratio was calculated as follows: Geo mean AGS67C/Geo Mean Isotype control=MFR, a measure of fold expression above Isotype control.

[3] = target: T1, CD37 (Leukocyte Antigen CD37, …); experiment: FACS, Kasumi-1 cells (AML); ratio to isotype control
Description: as §1, §2

[4] = target: T1, CD37 (Leukocyte Antigen CD37, …); experiment: FACS, Ramos RR XCL cells (Burkitt's, rituxan resistant); ratio to isotype control
Protocol: as §3

[5] = target: T1, CD37 (Leukocyte Antigen CD37, …); experiment: FACS, MOLM-13 cells (AML); ratio to isotype control
Protocol: as §3

[6] = target: T1, CD37 (Leukocyte Antigen CD37, …); experiment: FACS, DOHH-2 cells (Follicular); ratio to isotype control
Description: as §1, §2

[7] = target: T1, CD37 (Leukocyte Antigen CD37, …); experiment: FACS, MV-4-11 cells (AML); ratio to isotype control
Protocol: as §3

[8] = target: T1, CD37 (Leukocyte Antigen CD37, …); experiment: FACS, Daudi cells (Burkitt's); ratio to isotype control
Description: as §1, §2

[9] = target: T1, CD37 (Leukocyte Antigen CD37, …); experiment: FACS, SU-DHL-4 cells (DLBCL); ratio to isotype control
Protocol: as §3

[10] = target: T1, CD37 (Leukocyte Antigen CD37, …); experiment: FACS, MOLT-4 cells (ALL); ratio to isotype control
Protocol: as §3

[11] = target: T1, CD37 (Leukocyte Antigen CD37, …); experiment: FACS, KG-1 cells (AML); ratio to secondary detection (high isotype background)
Description: as §1
as §3, with “At the end of the incubation, cells were washed and incubated with secondary detection Streptavidin-PE antibody at a final 1:400 (1.25 μg/mL) dilution for 1 hr at 4° C.” left out, “Fluorescense ratio was calculated as follows: Geo mean AGS67C/Geo Mean Isotype control=MFR, a measure of fold expression above Isotype control.” left out

[12] = target: T1, CD37 (Leukocyte Antigen CD37, …); experiment: FACS, Hel 92.1 cells (AML); ratio to secondary detection (high isotype background)
Protocol: as §3, with “Fluorescense ratio was calculated as follows: Geo mean AGS67C/Geo Mean Isotype control=MFR, a measure of fold expression above Isotype control.” left out

[13] = target: T1, CD37 (Leukocyte Antigen CD37, …); experiment: FACS, Mino XCL cells (MCL, in-vivo xenograft); ratio to isotype control
[14] = target: T1, CD37 (Leukocyte Antigen CD37, …); experiment: FACS, HL-60 cells (AML); ratio to isotype control
Description: as §1, §2

[15] = target: T1, CD37 (Leukocyte Antigen CD37, …); experiment: FACS, RS4-11 cells (ALL); ratio to isotype control
Description: as §1, §2

[16] = target: T1, CD37 (Leukocyte Antigen CD37, …); experiment: FACS, Mino cells (MCL); ratio to isotype control
Protocol: as §3

[17] = target: T1, CD37 (Leukocyte Antigen CD37, …); experiment: FACS, WSU-DLCL-2 cells (DLBCL); ratio to isotype control
Description: as §1, §2

[18] = target: T1, CD37 (Leukocyte Antigen CD37, …); experiment: FACS, THP-1 cells (AML); ratio to isotype control
Description: as §1, §2

[19] = target: T1, CD37 (Leukocyte Antigen CD37, …); experiment: FACS, Ramos cells (Burkitt's); ratio to isotype control
Description: as §1, §2

[20] = target: T1, CD37 (Leukocyte Antigen CD37, …); experiment: FACS, JVM-3 cells (CLL); ratio to isotype control
Protocol: as §3

[21] = target: T1, CD37 (Leukocyte Antigen CD37, …); experiment: FACS, EoL-1 cells (AML); ratio to isotype control
Protocol: as §3

[22] = target: T1, CD37 (Leukocyte Antigen CD37, …); experiment: FACS, BDCM cells (AML); ratio to isotype control
Protocol: as §3

[23] = target: T1, CD37 (Leukocyte Antigen CD37, …); experiment: FACS, Granta-519 cells (MCL); ratio to secondary detection (high isotype background)
Description: as §1
as §3, with “At the end of the incubation, cells were washed and incubated with secondary detection Streptavidin-PE antibody at a final 1:400 (1.25 μg/mL) dilution for 1 hr at 4° C.” left out, “Fluorescense ratio was calculated as follows: Geo mean AGS67C/Geo Mean Isotype control=MFR, a measure of fold expression above Isotype control.” left out

[24] = target: T1, CD37 (Leukocyte Antigen CD37, …); experiment: FACS on cells expressing CD37

- MFR (Mean Florescence ratio) [1]: 341
- MFR (Mean Florescence ratio) [2]: 135
- MFR (Mean Florescence ratio) [3]: 9
- MFR (Mean Florescence ratio) [4]: 140
- MFR (Mean Florescence ratio) [5]: 6
- MFR (Mean Florescence ratio) [6]: 581
- MFR (Mean Florescence ratio) [7]: 8
- MFR (Mean Florescence ratio) [8]: 39
- MFR (Mean Florescence ratio) [9]: 662
- MFR (Mean Florescence ratio) [10]: 3
- MFR (Mean Florescence ratio) [11]: 10
- MFR (Mean Florescence ratio) [12]: 28
- MFR (Mean Florescence ratio) [13]: 316
- MFR (Mean Florescence ratio) [14]: 5
- MFR (Mean Florescence ratio) [15]: 26
- MFR (Mean Florescence ratio) [16]: 301
- MFR (Mean Florescence ratio) [17]: 554
- MFR (Mean Florescence ratio) [18]: 23
- MFR (Mean Florescence ratio) [19]: 534
- MFR (Mean Florescence ratio) [20]: 122
- MFR (Mean Florescence ratio) [21]: 3
- MFR (Mean Florescence ratio) [22]: 64
- MFR (Mean Florescence ratio) [23]: 372
B1: HvCD37-6b15.1.1 MAb (recombinant, expressed in CHO cells, human IgG2 / kappa) (antibody, V domains shown)
VH: QVQLQQWGAGLLKPSETLSLTCAVYGGSFSPYYWSWIRQPPGKGLEWIGEINHSGSTNYNPSLKSRVTISVDTSKNQFSLKLSSVTAADTAVYYCARRAGDFDYWGQGTLVTVSS
VL: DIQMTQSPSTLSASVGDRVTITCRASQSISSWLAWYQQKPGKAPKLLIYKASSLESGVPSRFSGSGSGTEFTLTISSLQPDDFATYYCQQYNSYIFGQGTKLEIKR
modifications: typical heavy chain of purified CHO material: N-terminal glutamine modified to pyroglutamate and C-terminal lysine deleted; biotinylated with NHS LC biotin for the FACS assays
notes: Fully human antibody: human variable regions on human IgG2 and human kappa constant regions, made in CHO cells (ATCC PTA-120464); also called HvCD37-6b15.1.1 IgG2; AGS67C

- binding result [24]: binds
B2: HvCD37-6b15.1.1 MAb purified from hybridoma (VelocImmune mouse) (antibody, V domains shown)
VH: B1 VH
VL: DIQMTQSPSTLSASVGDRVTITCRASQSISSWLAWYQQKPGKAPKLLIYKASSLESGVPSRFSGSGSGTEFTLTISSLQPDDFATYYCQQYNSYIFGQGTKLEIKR
notes: also called HvCD37-6b15.1.1 purified from hybridoma; MAb material derived from hybridoma cells
